What was measured:
[1] = biological target: T1, human NPRA on HEK293 cells bound to ANP (human, UniProt P01160 124-151); test: FACS, HEK NPRA cells with ANP
T1 construct: mature; Receptor-ligand complex on cells; also called HEK NPRA cells loaded with ANP; ANP-NPRA complex
T1 sequence: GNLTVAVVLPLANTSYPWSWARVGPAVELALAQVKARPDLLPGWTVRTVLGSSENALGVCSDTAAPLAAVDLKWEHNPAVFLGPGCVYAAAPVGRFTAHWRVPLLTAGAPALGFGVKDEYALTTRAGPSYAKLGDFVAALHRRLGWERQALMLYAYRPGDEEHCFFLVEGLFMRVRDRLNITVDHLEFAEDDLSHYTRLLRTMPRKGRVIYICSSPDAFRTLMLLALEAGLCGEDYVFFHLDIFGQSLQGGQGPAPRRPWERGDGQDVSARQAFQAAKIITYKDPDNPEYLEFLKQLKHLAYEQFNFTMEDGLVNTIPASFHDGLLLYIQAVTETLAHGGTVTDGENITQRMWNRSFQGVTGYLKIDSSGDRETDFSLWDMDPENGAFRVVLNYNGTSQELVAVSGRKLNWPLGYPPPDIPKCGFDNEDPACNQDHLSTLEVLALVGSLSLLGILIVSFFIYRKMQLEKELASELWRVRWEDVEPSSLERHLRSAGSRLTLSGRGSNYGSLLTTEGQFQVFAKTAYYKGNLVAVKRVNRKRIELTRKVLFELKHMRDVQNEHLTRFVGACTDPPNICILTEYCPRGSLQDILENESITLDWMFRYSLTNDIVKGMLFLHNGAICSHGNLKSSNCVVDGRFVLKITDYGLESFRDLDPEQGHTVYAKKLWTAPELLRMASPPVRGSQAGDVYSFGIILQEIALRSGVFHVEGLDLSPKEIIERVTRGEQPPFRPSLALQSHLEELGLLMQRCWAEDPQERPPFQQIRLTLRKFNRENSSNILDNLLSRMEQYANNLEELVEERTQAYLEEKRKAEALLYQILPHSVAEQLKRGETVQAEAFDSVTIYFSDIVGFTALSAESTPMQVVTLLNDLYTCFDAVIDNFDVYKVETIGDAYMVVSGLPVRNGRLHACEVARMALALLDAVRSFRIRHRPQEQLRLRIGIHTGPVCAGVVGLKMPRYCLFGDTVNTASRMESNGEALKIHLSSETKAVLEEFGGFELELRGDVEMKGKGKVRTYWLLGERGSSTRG
T1 sequence (peptide): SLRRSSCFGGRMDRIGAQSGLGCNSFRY

[2] = biological target: T2, human NPRA on HEK293 cells, without added ligand (human, UniProt P16066 33-1061); test: FACS, HEK NPRA cells without ligand
T2 construct: a signal peptide is not delimited; also called HEK NPRA cells; HEK hNPRA cells
T2 sequence: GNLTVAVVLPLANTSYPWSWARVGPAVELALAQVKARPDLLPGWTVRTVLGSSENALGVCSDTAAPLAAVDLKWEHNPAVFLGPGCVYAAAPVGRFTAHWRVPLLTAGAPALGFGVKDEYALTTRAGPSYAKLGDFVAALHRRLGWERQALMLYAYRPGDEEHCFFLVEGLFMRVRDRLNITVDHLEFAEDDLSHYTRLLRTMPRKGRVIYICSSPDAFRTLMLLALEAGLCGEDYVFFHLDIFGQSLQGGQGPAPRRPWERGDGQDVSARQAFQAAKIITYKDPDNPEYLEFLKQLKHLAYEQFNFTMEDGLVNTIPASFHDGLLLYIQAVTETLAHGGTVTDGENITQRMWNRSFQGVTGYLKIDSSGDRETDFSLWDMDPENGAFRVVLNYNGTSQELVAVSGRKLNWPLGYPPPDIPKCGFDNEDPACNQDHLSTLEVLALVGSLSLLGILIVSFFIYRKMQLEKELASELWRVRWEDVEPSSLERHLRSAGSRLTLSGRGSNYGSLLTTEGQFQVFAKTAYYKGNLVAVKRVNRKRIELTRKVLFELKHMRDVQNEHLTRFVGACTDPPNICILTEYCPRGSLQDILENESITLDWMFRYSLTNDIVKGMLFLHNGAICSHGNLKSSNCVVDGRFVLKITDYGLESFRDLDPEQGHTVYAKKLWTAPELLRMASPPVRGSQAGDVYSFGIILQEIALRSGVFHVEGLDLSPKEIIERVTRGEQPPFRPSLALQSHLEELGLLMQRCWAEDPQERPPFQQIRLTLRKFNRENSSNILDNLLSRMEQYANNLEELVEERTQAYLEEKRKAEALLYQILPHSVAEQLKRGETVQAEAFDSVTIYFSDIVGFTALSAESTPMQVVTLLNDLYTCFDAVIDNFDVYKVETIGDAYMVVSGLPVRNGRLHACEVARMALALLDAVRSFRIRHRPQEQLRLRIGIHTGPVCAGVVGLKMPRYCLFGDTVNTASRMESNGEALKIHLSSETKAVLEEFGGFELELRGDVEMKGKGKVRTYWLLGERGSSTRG

[3] = biological target: T3, atrial natriuretic peptide (ANP), free (UniProt P01160 124-151, 125I label in the radioligand assays of Example 10); test: FACS competition: Fab pre-incubated with free ANP, then HEK NPRA cells loaded with 100 nM ANP
T3 construct: mature; also called free ANP
T3 peptide (looked up): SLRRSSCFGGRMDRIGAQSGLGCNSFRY

[4] = biological target: T1, human NPRA on HEK293 cells bound to ANP; test: FACS titration on ANP bound HEK NPRA cells; ANP bound HEK NPRA cells
[5] = biological target: T4, human NPRA on HEK293 cells bound to BNP (human, UniProt P16860 103-134); test: cell-based or functional assay
T4 sequence: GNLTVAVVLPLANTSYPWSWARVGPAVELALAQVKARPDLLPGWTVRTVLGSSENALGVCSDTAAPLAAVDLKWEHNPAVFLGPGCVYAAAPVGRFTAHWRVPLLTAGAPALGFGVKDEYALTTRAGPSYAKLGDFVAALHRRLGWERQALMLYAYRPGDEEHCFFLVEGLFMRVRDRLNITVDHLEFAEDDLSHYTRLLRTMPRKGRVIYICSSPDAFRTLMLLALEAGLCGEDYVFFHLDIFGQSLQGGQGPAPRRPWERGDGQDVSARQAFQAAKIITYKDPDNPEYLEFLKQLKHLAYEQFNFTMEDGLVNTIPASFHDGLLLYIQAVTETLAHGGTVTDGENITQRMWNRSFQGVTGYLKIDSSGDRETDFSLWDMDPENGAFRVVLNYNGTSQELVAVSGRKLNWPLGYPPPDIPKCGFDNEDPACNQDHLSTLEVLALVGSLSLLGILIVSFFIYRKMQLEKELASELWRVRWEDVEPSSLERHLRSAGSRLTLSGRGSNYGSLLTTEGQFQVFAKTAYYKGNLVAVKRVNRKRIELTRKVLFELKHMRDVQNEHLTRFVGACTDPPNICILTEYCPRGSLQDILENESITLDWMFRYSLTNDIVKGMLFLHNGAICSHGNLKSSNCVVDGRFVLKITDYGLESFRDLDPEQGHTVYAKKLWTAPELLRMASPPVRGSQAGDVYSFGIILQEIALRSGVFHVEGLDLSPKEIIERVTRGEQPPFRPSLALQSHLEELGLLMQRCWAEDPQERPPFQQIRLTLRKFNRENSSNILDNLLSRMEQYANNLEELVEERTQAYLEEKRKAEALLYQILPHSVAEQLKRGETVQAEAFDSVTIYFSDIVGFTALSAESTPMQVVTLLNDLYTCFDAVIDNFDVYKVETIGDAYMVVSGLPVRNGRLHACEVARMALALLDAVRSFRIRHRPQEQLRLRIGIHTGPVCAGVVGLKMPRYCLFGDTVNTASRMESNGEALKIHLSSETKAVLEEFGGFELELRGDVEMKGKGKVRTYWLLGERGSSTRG
T4 sequence (peptide): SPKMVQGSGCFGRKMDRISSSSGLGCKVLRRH

[6] = biological target: T1, human NPRA on HEK293 cells bound to ANP; test: cell-based or functional assay
[7] = biological target: T4, human NPRA on HEK293 cells bound to BNP; test: FACS titration on BNP bound HEK NPRA cells; BNP bound HEK NPRA cells

B1: 5064 Fab (Fab, V domains shown)
VH: QVQLQQSGPGLVKPSQTLSLTCAISGDSVSSRSASWSWIRQSPGRGLEWLGRIYYRSKWYNDYAVSVKSRITINPDTSKNQFSLQLNSVTPEDTAVYYCARMDVPSFRYFDVWGQGTLVTVSS
VL: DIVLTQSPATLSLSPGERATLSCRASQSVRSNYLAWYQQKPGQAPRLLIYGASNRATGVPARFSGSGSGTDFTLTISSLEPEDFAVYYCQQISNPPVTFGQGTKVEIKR
EC50 (read off the curve) [1]: ~100 nM
binding result [2]: no binding (tested: 20 µg/ml)
binding result [3]: no binding (tested: 10000 nM)
EC50 [4]: ≥ 100 nM
fold decrease of the EC50 of BNP (cGMP, 400 nM Fab) [5]: 2 fold
EC50 of ANP, cGMP production in HEK NPRA cells, with 400 nM Fab [6]: 1 nM
EC50 [7]: ≥ 300 nM

From patent US20160168251A1 (MorphoSys, published 2016)
